We go through 2 substances from paper PMC8139597.

A value given as a limit tells only on which side of the number the result lay.

The target of the assay is GFP11(×7)-actin (actin fused to a seven-copy array of GFP11). Kind of assay: split reporter.

In the case of “FluoSTEP-ICUE (mRuby2-Epac1(149 to 881)-GFP1–10)”, the fold brightness of the GFP channel versus GFP11(×1)-actin worked out at 3.6 fold. “FluoSTEP-AKAR (R-G1–10–FluoSTEP-AKAR; mRuby2-FHA1-PKAsub-GFP1–10)” displayed a fold brightness of the GFP channel versus GFP11(×1)-actin of over 5 fold.
